Test [1] has as its target human CTLA-4 (human) (UniProt P16410). Nature of the test: flow cytometry, CHO cells expressing huCTLA4.
In test [2] the target is human PD-L1 (human) (UniProt Q9NZQ7). Nature of the test: flow cytometry, CHO cells expressing huPD-L1, vs WT CD80 ECD-Fc (R&D). For orientation: Flow cytometry measures light scatter and fluorescence of single cells or particles in a stream.
Target sequence in this assay (Q9NZQ7 19-290): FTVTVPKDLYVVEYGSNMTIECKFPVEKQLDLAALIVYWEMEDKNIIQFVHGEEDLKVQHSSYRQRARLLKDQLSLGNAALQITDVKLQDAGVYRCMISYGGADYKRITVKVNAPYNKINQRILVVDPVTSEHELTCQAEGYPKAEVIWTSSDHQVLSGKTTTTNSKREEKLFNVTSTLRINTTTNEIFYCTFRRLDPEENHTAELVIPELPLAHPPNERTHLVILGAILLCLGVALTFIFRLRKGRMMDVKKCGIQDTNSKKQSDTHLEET
Test [3] addresses CD28 (human) (UniProt P10747). Nature of the test: flow cytometry, Jurkat/IL2 reporter cells (CD28), vs WT CD80 ECD-Fc (R&D).
The target of test [4] is human CTLA-4 (human) (UniProt P16410). Nature of the test: flow cytometry, CHO cells expressing huCTLA4, vs WT CD80 ECD-Fc (R&D).
Test [5] deals with human PD-L1 (human) (UniProt Q9NZQ7). Nature of the test: flow cytometry, CHO cells expressing huPD-L1.
Target sequence in this assay (Q9NZQ7 19-290): as above
Test [6] addresses CD28 (human) (UniProt P10747). Nature of the test: flow cytometry, Jurkat/IL2 reporter cells (CD28).
Test [7] addresses human PD-L1 (human) (UniProt Q9NZQ7). Nature of the test: flow cytometry, CHO/huPD-L1 cells; vs WT CD80 ECD-Fc (Abcam).
Target sequence in this assay (Q9NZQ7 19-290): as above
In test [8] the target is human CTLA-4 (human) (UniProt P16410). Nature of the test: flow cytometry, CHO/huCTLA-4 cells; vs WT CD80 ECD-Fc (Abcam).
The target in test [9] is human PD-L1 (human) (UniProt Q9NZQ7). Nature of the test: flow cytometry; PD-L1 MFI over CD28 MFI of the same protein.
Target sequence in this assay (Q9NZQ7 19-290): as above
Test [10] deals with CD28 (human) (UniProt P10747). Nature of the test: flow cytometry, Jurkat cells (CD28); vs WT CD80 ECD-Fc (Abcam).
Test [11] deals with CD28 (human) (UniProt P10747).
Test [12] deals with human PD-L1 (human) (UniProt Q9NZQ7).
Target sequence in this assay (Q9NZQ7 19-290 limits assumed): as the sequence (Q9NZQ7 19-290) above
Test [13] deals with human CTLA-4 (human) (UniProt P16410). Nature of the test: flow cytometry, CHO cells expressing huCTLA-4.
In test [14] the target is human PD-L1 (huPD-L1), on stably transduced CHO cells (human) (UniProt Q9NZQ7). Nature of the test: flow cytometry on CHO/huPD-L1 cells; MFI relative to WT CD80 (CD80 WT IgV-Fc = 1.0).
Test [15] has the same target. Nature of the test: flow cytometry on CHO cells stably expressing huPD-L1, 33.3 nM Fc fusion, PE anti-human Fc.
The target of test [16] is CD28, endogenously expressed on Jurkat/IL2 reporter cells (human) (UniProt P10747). Nature of the test: flow cytometry on Jurkat/IL2 reporter cells (endogenous CD28), 33.3 nM Fc fusion, PE anti-human Fc.
The target in test [17] is human CTLA-4 (huCTLA4), on stably transduced CHO cells (human) (UniProt P16410). Nature of the test: flow cytometry on CHO/huCTLA4 cells; MFI relative to WT CD80 (CD80 WT IgV-Fc = 1.0).
Test [18] shares this target. Nature of the test: flow cytometry on CHO cells stably expressing huCTLA4, 33.3 nM Fc fusion, PE anti-human Fc.
The target in test [19] is CD28, endogenously expressed on Jurkat/IL2 reporter cells (human) (UniProt P10747). Nature of the test: flow cytometry on Jurkat (CD28) cells; MFI relative to WT CD80 (CD80 WT IgV-Fc = 1.0).
Test [20] has as its target human PD-L1 (huPD-L1), on stably transduced CHO cells (human) (UniProt Q9NZQ7). Nature of the test: flow cytometry; ratio of MFI on CHO/huPD-L1 cells to MFI on Jurkat (CD28) cells.

The source of these data is patent publication US20220177587A1, “METHODS AND USES OF VARIANT CD80 FUSION PROTEINS AND RELATED CONSTRUCTS” (Alpine Immune Sciences, Inc., priority 2018, published 2022).

human PD-L1 (huPD-L1), on stably transduced CHO cells (human), sequence (Q9NZQ7 19-290): as above
human CTLA-4 (human), sequence (P16410 36-223): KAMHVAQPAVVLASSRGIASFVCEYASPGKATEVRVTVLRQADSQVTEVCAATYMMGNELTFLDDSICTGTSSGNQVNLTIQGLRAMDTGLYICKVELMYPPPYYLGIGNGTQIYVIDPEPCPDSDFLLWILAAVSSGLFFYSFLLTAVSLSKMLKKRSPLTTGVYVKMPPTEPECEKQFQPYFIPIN
human CTLA-4 (huCTLA4), on stably transduced CHO cells (human), sequence (P16410 36-223): as above

B1: variant CD80 IgV-Fc E35D/T41S/M43V/M47I/L70M/A71G (Fc fusion)
chain: VIHVTKEVKEVATLSCGHNVSVEELAQTRIYWQKDKKMVLSMVSGDINIWPEYKNRTIFDITNNLSIVIMGLRPSDEGTYECVVLKYEKDAFKREHLAEVTLSVKAD
Take B1: the MFI at 33.3 nM in [1] was determined as 249000 MFI; in [5], 13000 MFI; in [6], 2700 MFI. The Fold change to WT CD80 in [2] amounted to 1.09 fold; in [3] it was 0.15 fold; in test [4], 1.59 fold.

B2: variant CD80 IgV-Fc E35D/M47V/V68M/L85Q/K89N (Fc fusion)
chain: VIHVTKEVKEVATLSCGHNVSVEELAQTRIYWQKDKKMVLTMMSGDVNIWPEYKNRTIFDITNNLSIMILALRPSDEGTYECVVQKYENDAFKREHLAEVTLSVKAD
For the molecule B2, the Fold change to WT CD80 in [7] was 94.4 fold; in [8] it was 0.7 fold; in [10], 0.3 fold. In test [9], the Ratio of PDL1:CD28 is 49.1. Besides, the IL-2 luciferase reporter, fold increase over WT CD80-IgV-Fc at 5.0 nM in test [11] and in test [12] was 7.4 fold each time. For the same molecule, the values for the MFI at 33.3 nM in test [13], in test [5] and in test [6] were 30300 MFI, 12100 MFI and 246 MFI, respectively.

B3: variant CD80 IgV-Fc E35D/D46V/M47V/V68M/L85Q (Fc fusion)
chain: VIHVTKEVKEVATLSCGHNVSVEELAQTRIYWQKDKKMVLTMMSGVVNIWPEYKNRTIFDITNNLSIMILALRPSDEGTYECVVQKYEKDAFKREHLAEVTLSVKAD
With B3, the results for the Fold change to WT CD80 in [7], in test [8] and in test [10] were 205 fold, 0.9 fold and 0.5 fold, respectively. In test [9], the Ratio of PDL1:CD28 turned out to be 79.4. The IL-2 luciferase reporter, fold increase over WT CD80-IgV-Fc at 5.0 nM in [11] and in test [12] was 8.5 fold in each case. For the same molecule, the MFI at 33.3 nM amounted to 36500 MFI in [13], 26300 MFI in test [5] and 331 MFI in test [6].

B4: variant CD80 IgV-Fc Q33L/E35D/M47I/N48D/A71G (Fc fusion)
chain: VIHVTKEVKEVATLSCGHNVSVEELAQTRIYWLKDKKMVLTMMSGDIDIWPEYKNRTIFDITNNLSIVILGLRPSDEGTYECVVLKYEKDAFKREHLAEVTLSVKAD
For the molecule B4, the values for the MFI at 33.3 nM in test [1], in [5] and in [6] were 117000 MFI, 31200 MFI and 644 MFI, respectively. Further, the Fold change to WT CD80 in [2] amounted to 2.62 fold; in test [3], 0.04 fold; in test [4], 0.74 fold.

B5: variant CD80 IgV-Fc E35D/D46V/M47V/N48K/V68M (Fc fusion)
chain: VIHVTKEVKEVATLSCGHNVSVEELAQTRIYWQKDKKMVLTMMSGVVKIWPEYKNRTIFDITNNLSIMILALRPSDEGTYECVVLKYEKDAFKREHLAEVTLSVKAD
Turning to B5, the Fold change to WT CD80 in test [7] was determined as 203 fold; in test [8] it was 0.6 fold; in test [10] it was 1.5 fold. The Ratio of PDL1:CD28 in test [9] amounted to 23.9. Besides, the IL-2 luciferase reporter, fold increase over WT CD80-IgV-Fc at 5.0 nM in test [11] and in [12] was 6.1 fold in each case. For the same molecule, the MFI at 33.3 nM stood at 23900 MFI in [13], 25900 MFI in test [5] and 1080 MFI in test [6].

B6: variant CD80 IgV-Fc E35D/M47V (Fc fusion)
chain: VIHVTKEVKEVATLSCGHNVSVEELAQTRIYWQKDKKMVLTMMSGDVNIWPEYKNRTIFDITNNLSIVILALRPSDEGTYECVVLKYEKDAFKREHLAEVTLSVKAD
With B6, the Fold change to WT CD80 in test [7] was 53.1 fold; in test [8], 1.1 fold; in [14], 41.7 fold; in [10] it was 0.7 fold; in test [17], 10.9 fold; in test [19] it was 7 fold. Also, the MFI at 33.3 nM in [15] was 2940 MFI; in test [16], 461 MFI; in test [18], 20900 MFI; in test [13], 44600 MFI; in test [5], 6800 MFI; in test [6], 501 MFI. Besides, the Ratio of PDL1:CD28 in test [9] was 13.6; in test [20], 6. Also, the IL-2 luciferase reporter, fold increase over WT CD80-IgV-Fc at 5.0 nM in [11] and in [12] was 4.7 fold throughout.

B7: variant CD80 IgV-Fc E35D/M47V/N48K/V68M/L85Q (Fc fusion)
chain: VIHVTKEVKEVATLSCGHNVSVEELAQTRIYWQKDKKMVLTMMSGDVKIWPEYKNRTIFDITNNLSIMILALRPSDEGTYECVVQKYEKDAFKREHLAEVTLSVKAD
In the case of B7, the results for the Fold change to WT CD80 in test [7], in [8] and in test [10] were 81.9 fold, 0.6 fold and 0.2 fold, respectively. The Ratio of PDL1:CD28 in [9] is 88.8. Also, the IL-2 luciferase reporter, fold increase over WT CD80-IgV-Fc at 5.0 nM in test [11] and in [12] was 7.9 fold each time. Further, the MFI at 33.3 nM in test [13] amounted to 26100 MFI; in [5] it was 10500 MFI; in [6] it was 118 MFI.

B8: variant CD80 IgV-Fc E35D/M47L/A71G/L85M/F92Y (Fc fusion)
chain: VIHVTKEVKEVATLSCGHNVSVEELAQTRIYWQKDKKMVLTMMSGDLNIWPEYKNRTIFDITNNLSIVILGLRPSDEGTYECVVMKYEKDAYKREHLAEVTLSVKAD
In the case of B8, the values for the MFI at 33.3 nM in test [1], in [5] and in test [6] were 216000 MFI, 46700 MFI and 2460 MFI, respectively. In addition, the figures for the Fold change to WT CD80 in [2], in test [3] and in test [4] were 3.93 fold, 0.14 fold and 1.37 fold, respectively.

B9: variant CD80 IgV-Fc M47V/N48K/V68M (Fc fusion)
chain: VIHVTKEVKEVATLSCGHNVSVEELAQTRIYWQKEKKMVLTMMSGDVKIWPEYKNRTIFDITNNLSIMILALRPSDEGTYECVVLKYEKDAFKREHLAEVTLSVKAD
As for B9, the Fold change to WT CD80 in test [7] was 113 fold; in test [8], 0.9 fold; in [10], 0.9 fold. Moreover, the Ratio of PDL1:CD28 in [9] came to 22.6. For the same molecule, the IL-2 luciferase reporter, fold increase over WT CD80-IgV-Fc at 5.0 nM in [11] and in [12] was 5.8 fold each time. Moreover, the MFI at 33.3 nM was 34600 MFI in test [13], 14500 MFI in test [5] and 641 MFI in test [6].

B10: variant CD80 IgV-Fc E35D/D46E/M47V/V68M/D90G/K93E (Fc fusion)
chain: VIHVTKEVKEVATLSCGHNVSVEELAQTRIYWQKDKKMVLTMMSGEVNIWPEYKNRTIFDITNNLSIMILALRPSDEGTYECVVLKYEKGAFEREHLAEVTLSVKAD
B10: the values for the MFI at 33.3 nM in test [1], in [5] and in test [6] were 273000 MFI, 71900 MFI and 27100 MFI, respectively. In addition, the Fold change to WT CD80 in test [2] worked out at 6.06 fold; in test [3], 1.5 fold; in test [4], 1.74 fold.

B11: variant CD80 IgV-Fc E35D/M47V/K89N (Fc fusion)
chain: VIHVTKEVKEVATLSCGHNVSVEELAQTRIYWQKDKKMVLTMMSGDVNIWPEYKNRTIFDITNNLSIVILALRPSDEGTYECVVLKYENDAFKREHLAEVTLSVKAD
B11: the Fold change to WT CD80 was found to be 33.9 fold in [7], 1 fold in test [8] and 0.7 fold in test [10]. In [9], the Ratio of PDL1:CD28 was 8.6. Further, the IL-2 luciferase reporter, fold increase over WT CD80-IgV-Fc at 5.0 nM in test [11] and in test [12] was 5.8 fold each time. Moreover, the results for the MFI at 33.3 nM in test [13], in test [5] and in test [6] were 39300 MFI, 4340 MFI and 507 MFI, respectively.

B12: variant CD80 IgV-Fc E35D/D46E/M47V/N63D/L85Q (Fc fusion)
chain: VIHVTKEVKEVATLSCGHNVSVEELAQTRIYWQKDKKMVLTMMSGEVNIWPEYKNRTIFDITDNLSIVILALRPSDEGTYECVVQKYEKDAFKREHLAEVTLSVKAD
Turning to B12, the results for the MFI at 33.3 nM in test [1], in test [5] and in test [6] were 274000 MFI, 69800 MFI and 1330 MFI, respectively. For the same molecule, the Fold change to WT CD80 in [2] stood at 5.88 fold; in [3] it was 0.07 fold; in test [4], 1.74 fold.
